# From patent publication US20190367631A1 (Regeneron, published 2019)
# T1: full length human MSR1 with a C-terminal Myc tag, on HEK293.Myc.hMSR1 cells (human, UniProt P21757 1-451)
# T1 sequence (looked up): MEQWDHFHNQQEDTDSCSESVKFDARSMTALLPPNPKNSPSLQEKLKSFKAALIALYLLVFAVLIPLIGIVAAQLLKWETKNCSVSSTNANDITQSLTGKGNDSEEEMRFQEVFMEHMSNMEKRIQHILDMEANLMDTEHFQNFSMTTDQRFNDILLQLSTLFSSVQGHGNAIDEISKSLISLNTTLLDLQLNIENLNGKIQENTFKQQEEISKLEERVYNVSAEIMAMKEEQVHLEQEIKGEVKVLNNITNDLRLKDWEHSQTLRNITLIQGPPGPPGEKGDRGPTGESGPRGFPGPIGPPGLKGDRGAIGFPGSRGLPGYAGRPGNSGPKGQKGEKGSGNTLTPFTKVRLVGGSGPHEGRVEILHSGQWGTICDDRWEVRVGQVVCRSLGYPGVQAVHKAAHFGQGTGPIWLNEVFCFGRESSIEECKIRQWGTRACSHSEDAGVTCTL
# T2: mouse MSR1 on RAW264.7 cells (mouse, UniProt P30204 1-458)
# T2 construct: whole, on cells; also called MSR1 positive RAW264.7 cells
# T2 sequence (looked up): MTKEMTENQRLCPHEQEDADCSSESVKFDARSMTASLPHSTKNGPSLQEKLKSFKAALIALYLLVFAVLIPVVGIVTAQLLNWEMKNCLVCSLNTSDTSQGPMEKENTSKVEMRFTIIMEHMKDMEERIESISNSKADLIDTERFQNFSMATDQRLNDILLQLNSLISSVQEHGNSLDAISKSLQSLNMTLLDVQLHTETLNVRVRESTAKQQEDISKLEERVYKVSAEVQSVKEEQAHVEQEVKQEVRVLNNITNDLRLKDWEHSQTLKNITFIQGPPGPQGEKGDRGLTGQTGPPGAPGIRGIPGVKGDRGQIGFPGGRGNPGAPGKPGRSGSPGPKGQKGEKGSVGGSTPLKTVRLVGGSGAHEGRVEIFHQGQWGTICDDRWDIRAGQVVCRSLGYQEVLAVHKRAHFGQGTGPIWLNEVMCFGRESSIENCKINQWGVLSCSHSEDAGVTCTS
# T3: human MSR1 extracellular domain expressed with a N-terminal nonahistidine tag (His9-hMSR1); R&D Systems, Cat … (human, UniProt P21757 77-451)
# T3 construct: extracellular domain; Bought reagent; also called His-hMSR1; 9xHis-hMSR1
# T3 sequence: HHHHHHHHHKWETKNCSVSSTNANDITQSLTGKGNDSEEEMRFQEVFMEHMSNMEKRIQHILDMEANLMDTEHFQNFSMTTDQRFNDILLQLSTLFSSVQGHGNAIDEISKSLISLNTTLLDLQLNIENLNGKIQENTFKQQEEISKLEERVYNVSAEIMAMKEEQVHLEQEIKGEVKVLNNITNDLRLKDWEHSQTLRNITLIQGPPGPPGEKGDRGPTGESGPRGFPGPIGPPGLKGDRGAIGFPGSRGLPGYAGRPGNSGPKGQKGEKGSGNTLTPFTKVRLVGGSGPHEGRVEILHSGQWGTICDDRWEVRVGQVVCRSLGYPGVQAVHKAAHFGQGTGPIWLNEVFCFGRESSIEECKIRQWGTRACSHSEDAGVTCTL
# T4: human MSR1 extracellular domain expressed with a N-terminal nonahistidine tag (human, UniProt P21757 77-451)
# T4 construct: extracellular domain; also called His9-hMSR1; His-hMSR1
# T4 sequence: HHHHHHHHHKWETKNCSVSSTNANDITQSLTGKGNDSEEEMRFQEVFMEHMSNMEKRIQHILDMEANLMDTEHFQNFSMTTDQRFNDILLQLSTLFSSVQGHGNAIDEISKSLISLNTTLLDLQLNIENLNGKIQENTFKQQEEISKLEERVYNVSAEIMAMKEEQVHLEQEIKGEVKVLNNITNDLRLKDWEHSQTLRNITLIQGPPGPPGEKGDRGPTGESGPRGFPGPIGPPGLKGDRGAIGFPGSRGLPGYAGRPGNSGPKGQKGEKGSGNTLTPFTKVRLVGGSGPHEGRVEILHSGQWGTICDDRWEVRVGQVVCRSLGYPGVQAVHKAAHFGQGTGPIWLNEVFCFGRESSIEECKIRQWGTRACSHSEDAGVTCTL
# Tests used:
# [1] = biological target: T1, full length human MSR1 with a …; assay: cell-based or functional assay
# [2] = biological target: T2, mouse MSR1 on RAW264.7 cells; assay: flow cytometry, RAW264.7 cells
# Protocol: To block binding to Fc receptors, RAW264.7 cells were incubated for 30 minutes at 4° C. with 500 pg/mL mouse IgG (Jackson ImmunoResearch, Cat #015-000-003) diluted in staining buffer, while B16F10.9 cells remained in staining buffer. […] The signal to noise (S/N) was determined by calculating the ratio of the anti-MSR1 antibodies or the control antibodies MFI to the unstained sample MFI (Table 11).
# [3] = biological target: T3, human MSR1 extracellular domain …; assay: SPR Biacore T200, 25 C, antibody captured by anti-human Fc, His9-hMSR1 injected; no dissociation seen, kd fixed at 1.00E-05;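 on kon: running buffer HBS-ET pH 7.4, rates from sensorgrams fitted to a 1:1 model including mass transport limitation, KD and half-life derived from the kinetic constants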
# Protocol: All binding studies were performed in 10 mM HEPES, 300 mM NaCl, 3 mM EDTA, and 0.05% v/v Surfactant Tween-20, pH 7.4 (HBS-ET) running buffer at 25° C.
# The association rate (kₐ) and dissociation rate (kd) were determined by fitting the real-time binding sensorgrams to a 1:1 binding model with mass transport limitation using Scrubber 2.0c curve-fitting software. Binding dissociation equilibrium constant (KD) and dissociative half-life (t½) were calculated from the kinetic rates as:
# [4] = biological target: T3, human MSR1 extracellular domain …; assay: SPR Biacore T200, 25 C, antibody captured by anti-human Fc, His9-hMSR1 injected;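 further: running buffer HBS-ET pH 7.4, rates from sensorgrams fitted to a 1:1 model including mass transport limitation, KD and half-life derived from the kinetic constants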
# [5] = biological target: T4, human MSR1 extracellular domain …; assay: competition ELISA, plate-coated His9-hMSR1; 100 nM antibody, competitor ligand Ac-LDL
# Protocol: (§1) Buffer alone was also added to wells on each coat. […] This assay was conducted in four different assay runs.
# (§2) Data analysis was performed using a sigmoidal dose-response model within Prism™ software (GraphPad).
# [6] = biological target: T4, human MSR1 extracellular domain …; assay: competition ELISA, plate-coated His9-hMSR1; 300 nM antibody, competitor ligand biot-AGE-BSA
# Protocol: as §1, §2
binder,measurement,setting,value
"H1H27760P2-N297Q (antibody, human IgG1, V domains shown, human IgG1 Fc with N297Q; also called H1H27760P-N297Q) VH: EVQLVESGGGLVQPGRSLRLSCAASGFTFDAYAMHWVRQAPGKGLEWVSGISWNSGSIGYADSVKGRFTISRDNAKNSLYLQMNSLREEDTALYYCAKDKILELYYYGMDVWGQGTTVTVSS VL: not shown",% Inhibition of Dil-Acetylated LDL uptake,[1],46%
same,% Inhibition of Dil-Oxidized LDL uptake,[1],70%
same,IC50 of Dil-Acetylated LDL uptake inhibition,[1],2.6 nM
same,IC50 of Dil-Oxidized LDL uptake inhibition,[1],4.9 nM
same,MFI,[2],3430 MFI
same,S/N (MFI over unstained MFI),[2],1
"H1H27732P-N297Q (antibody, human IgG1, V domains shown, human IgG1 Fc with N297Q) VH: QLQLQESGPGLVKPSETLSLTCTVSGGSISSSTYYWGWIRQPPGKGLEWIGSFYYSGSTYYNPSLKSRVTISVGTSKNQFSLKLSSVTAADTAVYFCARGGLLGRPFVIWGQGTMVTVSS VL: DIQMTQSPSSLSASVGDRVTITCRASQGIRNDLGWYQQKPGKAPKRLIYAASSLQSGVPSRFSGSGSGTEFTLTISSLQPEDFATYYCLQHNSYPLTFGGGTKVEIKR",% Inhibition of Dil-Acetylated LDL uptake,[1],62%
same,% Inhibition of Dil-Oxidized LDL uptake,[1],86%
same,MFI,[2],3420 MFI
same,S/N (MFI over unstained MFI),[2],1
"H1H27732P-N297Q (antibody, human IgG1, V domains shown, human IgG1 Fc with N297Q (EU)) VH: QLQLQESGPGLVKPSETLSLTCTVSGGSISSSTYYWGWIRQPPGKGLEWIGSFYYSGSTYYNPSLKSRVTISVGTSKNQFSLKLSSVTAADTAVYFCARGGLLGRPFVIWGQGTMVTVSS VL: DIQMTQSPSSLSASVGDRVTITCRASQGIRNDLGWYQQKPGKAPKRLIYAASSLQSGVPSRFSGSGSGTEFTLTISSLQPEDFATYYCLQHNSYPLTFGGGTKVEIKR",Kd,[3],≤ 0.045 nM
same,t½,[3],≥ 19.3 h
"H1H27732P-N297Q-LP1 (antibody, human IgG1, V domains shown, LXR agonist linker-payload LP1 clicked to azido-PEG3-amine on Q295 and Q297 (EU) of the heavy chain constant region, antibody-drug conjugate; human IgG1 Fc with N297Q (EU); also called H1H27732P-LP1) VH: QLQLQESGPGLVKPSETLSLTCTVSGGSISSSTYYWGWIRQPPGKGLEWIGSFYYSGSTYYNPSLKSRVTISVGTSKNQFSLKLSSVTAADTAVYFCARGGLLGRPFVIWGQGTMVTVSS VL: DIQMTQSPSSLSASVGDRVTITCRASQGIRNDLGWYQQKPGKAPKRLIYAASSLQSGVPSRFSGSGSGTEFTLTISSLQPEDFATYYCLQHNSYPLTFGGGTKVEIKR",kon,[4],150000 M⁻¹ s⁻¹
same,Kd,[3],≤ 0.066 nM
same,koff,[3],≤ 1e-05 s⁻¹
same,t½,[3],≥ 19.3 h
"H1H27778P2-N297Q (antibody, human IgG1, V domains shown, Human IgG1 Fc with N297Q; also called H1H27778P-N297Q) VH: EVQLVESGGGLEQPGGSLRLSCAASGFTFSSYAMSWVRQAPGKGLEWVSVISGSGGYTNYADSVKGRFTISRDNSKNTLYLQMNRLRAEDSAVYYCARHNWNYDYYGMDVWGQGTTVTVSS VL: not shown",% Blocking,[5],-40%
same,% Blocking,[6],-8%
"H1H27778P2-N297Q (antibody, human IgG1, V domains shown, human IgG1 Fc with N297Q; also called H1H27778P-N297Q) VH: EVQLVESGGGLEQPGGSLRLSCAASGFTFSSYAMSWVRQAPGKGLEWVSVISGSGGYTNYADSVKGRFTISRDNSKNTLYLQMNRLRAEDSAVYYCARHNWNYDYYGMDVWGQGTTVTVSS VL: not shown",S/N (MFI over unstained MFI),[2],1
"H1H21234N-N297Q-LP1 (antibody, human IgG1, V domains shown, LXR agonist linker-payload LP1 clicked to azido-PEG3-amine on Q295 and Q297 (EU) of the heavy chain constant region, antibody-drug conjugate; human IgG1 Fc with N297Q (EU); also called H1H21234N-LP1) VH: QVQLQESGPGLVKPSETLSLTCTVTGGSISRNYWSWIRQPPGKGLEWIGYIYYSGSIDYNPSLKSRVTISVDTSKNQFSLKLSSMTAADTAVYYCARDRWNWKYGMDVWGQGTTVIVSS VL: EIVLTQSPGTLSLSPGERATLSCRASQTVRNNYLAWYHQKPGQAPRLLIYGASSRATGIPDRFSGSGSGTDFTLTISRLEPEDFTVYYCHQYGNSPWTFGQGTKMEIKR",kon,[4],490000 M⁻¹ s⁻¹
same,Kd,[3],≤ 0.0204 nM
same,koff,[3],≤ 1e-05 s⁻¹
same,t½,[3],≥ 19.3 h
"H1H27771P2-N297Q (antibody, V domains shown, Human IgG1 Fc with N297Q; also called H1H27771P-N297Q) VH: EVQLVESGGGLVQPGGSLRLSCAASGFTFSSYGMNWVRQAPGKGLEWVSVISGSGGSTYYADSVKGRFTISRDNSKNTLYLQMNSLRAEDTAVYYCAKDRWTYYYDSSGSPFDYWGQGTLVTVSS VL: not shown",% Blocking,[6],-1%
